Data as given in patent US20140017269A1 (CHILDREN S HOSPITAL MEDICAL CENTER, published 2014).

How the values were obtained:
[1] = target: the molecule itself; experiment: gel filtration and EM; self-association
[2] = target: the molecule itself; experiment: gel filtration; self-association
[3] = target: the molecule itself; experiment: gel filtration; self-association; remark: listed apart in the source
[4] = target: the molecule itself; experiment: gel filtration chromatography (self-association)
[5] = target: the molecule itself; experiment: form of the immunogen as described; self-association

B1: NoV P domain-RGDCFC (NoV P^+) of Norovirus VA387 (GII.4) (other)
chain: SRTKPFTVPILTVEEMSNSRFPIPLEKLYTGPSSAFVVQPQNGRCTTDGVLLGTTQLSAVNICTFRGDVTHIAGSHDYIMNLASQNWNNYDPTEEIPAPLGTPDFVGKIQGMLTQTTREDGSTRAHKATVSTGSVHFTPKLGSVQYTTDTNNDLQTGQNTKFTPVGVIQDGNNHQNEPQQWVLPNYSGRTGHNVHLAPAVAPTFPGEQLLFFRSTMPGCSGYPNMNLDCLLPQEWVQHFYQEAAPAQSDVALLRFVNPDTGRVLFECKLHKSGYVTVAHTGPHDLVIPPNGYFRFDSWVNQFYTLAPMGNGAGRRRALCDCRGDCFC
notes: Mainly the 24mer P particle (~830 kDa), with a low portion (~5%) of P dimer; also called P-RGDCFC
Question: Does B1 bind [1]?
Answer: Result: binds

B2: NoV P polypeptide (NoV P^-) of Norovirus VA387 (GII.4) (other)
chain: SRTKPFTVPILTVEEMSNSRFPIPLEKLYTGPSSAFVVQPQNGRCTTDGVLLGTTQLSAVNICTFRGDVTHIAGSHDYIMNLASQNWNNYDPTEEIPAPLGTPDFVGKIQGMLTQTTREDGSTRAHKATVSTGSVHFTPKLGSVQYTTDTNNDLQTGQNTKFTPVGVIQDGNNHQNEPQQWVLPNYSGRTGHNVHLAPAVAPTFPGEQLLFFRSTMPGCSGYPNMNLDCLLPQEWVQHFYQEAAPAQSDVALLRFVNPDTGRVLFECKLHKSGYVTVAHTGPHDLVIPPNGYFRFDSWVNQFYTLAPMGNGAGR
notes: ~34.5 kDa monomer, ~69 kDa dimer; also called free NoV P^- dimer
Question: Does B2 bind [2]?
Answer: Result: binds

B3: NoV P^--VP8* (C-end) protein (other)
chain: SRTKPFTVPILTVEEMSNSRFPIPLEKLYTGPSSAFVVQPQNGRCTTDGVLLGTTQLSAVNICTFRGDVTHIAGSHDYIMNLASQNWNNYDPTEEIPAPLGTPDFVGKIQGMLTQTTREDGSTRAHKATVSTGSVHFTPKLGSVQYTTDTNNDLQTGQNTKFTPVGVIQDGNNHQNEPQQWVLPNYSGRTGHNVHLAPAVAPTFPGEQLLFFRSTMPGCSGYPNMNLDCLLPQEWVQHFYQEAAPAQSDVALLRFVNPDTGRVLFECKLHKSGYVTVAHTGPHDLVIPPNGYFRFDSWVNQFYTLAPMGNGAGRGGGGGGGGGGGGLDGPYQPTTFTPPTDYWILINSNTNGVVYESTNNSDFWTAVIAVEPHVNPVDRQYNVFGENKQFNVRNDSDKWKFLEMFRGSSQNDFYNRRTLTSDTRLVGILKYGGRIWTFHGETPRATTDSSNTANLNGISITIHSEFYIIPRSQESKCNEYINNGL
notes: Thrombin-cleaved product; ~52 kDa monomer, ~100 kDa dimer; also called free NoV P^--VP8* dimer
Question: Does B3 bind [3]?
Answer: Result: binds

B4: HEV P domain (protruding domain of hepatitis E virus) (other)
chain: TPSPAPSRPFSVLRANDVLWLSLTAAEYDQTTYGSSTNPMYVSDTVTFVNVATGAQAVARSLDWSKVTLDGRPLTTIQQYSKTFYVLPLRGKLSFWEASTTKAGYPYNYNTTASDQILIENAAGHRVAISTYTTSLGAGPTSISAVGVLAPHSALAALEDTVDYPCDCRGDCFC
notes: released from GST-HEV P by thrombin; ~19 kDa monomer, ~38 kDa dimer
Question: Does B4 bind [2]?
Answer: Result: binds

B5: NoV P^- (387)-NoV P^- (207) fusion protein (other)
chain: SRTKPFTVPILTVEEMSNSRFPIPLEKLYTGPSSAFVVQPQNGRCTTDGVLLGTTQLSAVNICTFRGDVTHIAGSHDYIMNLASQNWNNYDPTEEIPAPLGTPDFVGKIQGMLTQTTREDGSTRAHKATVSTGSVHFTPKLGSVQYTTDTNNDLQTGQNTKFTPVGVIQDGNNHQNEPQQWVLPNYSGRTGHNVHLAPAVAPTFPGEQLLFFRSTMPGCSGYPNMNLDCLLPQEWVQHFYQEAAPAQSDVALLRFVNPDTGRVLFECKLHKSGYVTVAHTGPHDLVIPPNGYFRFDSWVNQFYTLAPMGNGAGRGGGGGGGGGGGGSKTKAFTIPVLKISEMTNSRFPVPVDQMYTSRSEGIVVQPQNGRATIDGELLGTTLVSPVSVCNFKGNLQAEVPGQHQLYQLQLTNLDGSPIDPTDDTPGPLGCPDFTGLLYGVASQRGPGDATRAHEARIDTGSDTFAPKIGQVRFYSTSSDFETNQPTHFTPIGIYIEGNSSDFNQWQLPRYGGHLANNNHLAPAVSPLFPGEQILFFRSFIPGASGHTNGEMDCLLPQEFVQHFYQEAATARSEVALLRFVNPDTGRALFESKLHKQGFMTIASSGDHPIIMPTNGYFRFEAWVNQFYSLAPVGTGSGR
notes: also called NoV P^-(GII.4)-NoV P^-(GII.9)
Question: Does B5 bind [1]?
Answer: Result: binds

B6: Rotavirus VP8* (other)
chain: LDGPYQPTTFTPPTDYWILINSNTNGVVYESTNNSDFWTAVIAVEPHVNPVDRQYNVFGENKQFNVRNDSDKWKFLEMFRGSSQNDFYNRRTLTSDTRLVGILKYGGRIWTFHGETPRATTDSSNTANLNGISITIHSEFYIIPRSQESKCNEYINNGL
notes: ~18 kDa monomer; also called free VP8* monomer
Question: Does B6 bind [4]?
Answer: Result: no binding

B7: NoV P^- (387)-NoV P^- (115) fusion protein (other)
chain: SRTKPFTVPILTVEEMSNSRFPIPLEKLYTGPSSAFVVQPQNGRCTTDGVLLGTTQLSAVNICTFRGDVTHIAGSHDYIMNLASQNWNNYDPTEEIPAPLGTPDFVGKIQGMLTQTTREDGSTRAHKATVSTGSVHFTPKLGSVQYTTDTNNDLQTGQNTKFTPVGVIQDGNNHQNEPQQWVLPNYSGRTGHNVHLAPAVAPTFPGEQLLFFRSTMPGCSGYPNMNLDCLLPQEWVQHFYQEAAPAQSDVALLRFVNPDTGRVLFECKLHKSGYVTVAHTGPHDLVIPPNGYFRFDSWVNQFYTLAPMGNGAGRGGGGGGGGGGGGQKTKPFSVPNLPLNTLSNSRVPSLIRSMMVSRDHGQMVQFQNGRVTLDGQLQGTTPTSASQLCKIRGSVFHANGGNGYTLTELDGSPYHAFESPAPIGFPDLGECDWHMEASPTTQFDTGDVIKQINVKQEAAFAPHLGTIQADGLSDVSVNTNMIAKLGWVSPASDGHRGNVDPWVIPRYGSTLTEAAQLAPPIYPPGFGEAIVFFMSDFPIAHGANGLSVPCTIPQEFVTHFVNEQAPTRGEAALLHYLDPDTHRNLGEFKLYPEGFMTCVPNSSGTGPQTLPINGVFVFVSWVSRFYQLKPVGTAGPARSLGI
Question: Does B7 bind [5]?
Answer: Result: binds
